Positions count from the first letter of the chain named. Blank lines part the entries; values can stand above or below the binder they belong to.
What was measured:
[1] = molecular target: recombinant human IL-18 (KG-1 bioassay) (human, UniProt Q14116 37-193); test: cell-based or functional assay
[2] = molecular target: natural human IL-18 (whole blood assay) (human, UniProt Q14116 37-193); test: cell-based or functional assay
[3] = molecular target: T1, mutant human IL-18 (mature form of pro-IL-18-5C→A, cysteines mutated to alanine) (human, UniProt Q14116 37-193); test: method not stated (Biacore is named later in the paragraph)
T1 construct: also called Mutant IL-18; pro-IL-18-5C→A after caspase-1 cleavage

[4] = molecular target: T2, murine IL-18, mature, with C-terminal V5 and His tags (mouse, UniProt P70380 36-192); test: sandwich ELISA, capture by test antibody, detection by anti-tag antibody
T2 construct: also called IL-18 mouse
T2 sequence: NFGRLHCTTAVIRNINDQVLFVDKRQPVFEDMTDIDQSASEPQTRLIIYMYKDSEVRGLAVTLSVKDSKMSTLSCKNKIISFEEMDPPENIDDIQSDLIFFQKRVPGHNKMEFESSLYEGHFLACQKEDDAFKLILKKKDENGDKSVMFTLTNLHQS

[5] = molecular target: T3, human/murine IL-18 chimera in which C-terminal human IL-18 residues 92-193 were replaced by the corresponding … (human; mouse); test: as above
T3 construct: Mature form after caspase-1 cleavage; also called human (37-91)/murine IL-18 chimera; not shown: C-terminal V5 and His tags and any linker to them
T3 chain: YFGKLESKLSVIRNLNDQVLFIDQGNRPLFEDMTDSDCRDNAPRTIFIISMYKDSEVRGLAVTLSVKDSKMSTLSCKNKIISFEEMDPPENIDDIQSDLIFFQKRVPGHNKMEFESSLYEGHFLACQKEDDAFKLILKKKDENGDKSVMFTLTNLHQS

[6] = molecular target: T4, human/murine IL-18 chimera in which C-terminal human IL-18 residues 120-193 were replaced by the … (human; mouse); test: as above
T4 construct: Mature form after caspase-1 cleavage; also called human (37-119)/murine IL-18 chimera; not shown: C-terminal V5 and His tags and any linker to them
T4 chain: T3 chain with E56Q, V57P, L60M, L64I, D68C, S69E, M71I, K77E

[7] = molecular target: T5, human (37-176)/murine (174-192) IL-18 chimera (human; mouse, UniProt Q14116 37-188); test: as above
T5 chain: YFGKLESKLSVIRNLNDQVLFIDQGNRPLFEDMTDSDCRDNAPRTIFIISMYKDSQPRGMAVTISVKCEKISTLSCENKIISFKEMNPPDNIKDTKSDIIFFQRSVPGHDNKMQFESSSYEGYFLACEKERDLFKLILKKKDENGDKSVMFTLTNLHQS

[8] = molecular target: T5, human (37-176)/murine (174-192) IL-18 …; test: sandwich ELISA: tagged IL-18 chimera captured by the test antibody, detected with an anti-tag antibody

IC50, human myelomonocytic cell line KG-1 bioassay; IL-18Rα/β-driven IFN-γ production [1]: 0.2 nM | IC50, whole blood assay; LPS+IL-12-driven IFN-γ production [2]: ~3 nM | Kd [3]: ~0.2 nM | binding result [4]: no binding | binding result [5]: no binding | binding result [6]: no binding | binding result [7]: binds
B1: ABT-325, recombinant human immunoglobulin G1 (IgG1) monoclonal antibody specific for human IL-18 (antibody, V domains shown)
VH: EVQLVQSGTEVKKPGESLKISCKGSGYTVTSYWIGWVRQMPGKGLEWMGFIYPGDSETRYSPTFQGQVTISADKSFNTAFLQWSSLKASDTAMYYCARVGSGWYPYTFDIWGQGTMVTVSS
VL: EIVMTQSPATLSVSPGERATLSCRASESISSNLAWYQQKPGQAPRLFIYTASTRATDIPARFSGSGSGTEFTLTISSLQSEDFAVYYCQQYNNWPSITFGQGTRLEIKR
notes: IgG1 kappa

IC50, human myelomonocytic cell line KG-1 bioassay; IL-18Rα/β-driven IFN-γ production [1]: 0.2 nM | IC50, whole blood assay; LPS+IL-12-driven IFN-γ production [2]: ~3 nM | Kd [3]: ~0.2 nM | binding result [8]: no binding
B2: 125-2H, neutralizing murine immunoglobulin G1 (IgG1) monoclonal antibody specific for human IL-18 (antibody, V domains shown)
VH: EIQLQQSGPELVKPGASVKVSCKASGYSFTDYFIYWVKQSHGKSLEWIGDIDPYNGDTSYNQKFRDKATLTVDQSSTTAFMHLNSLTSEDSAVYFCARGLRFWGQGTLVTVSA
VL: DIQMTQSPSSLSASLGERVSLTCRASQDIGSKLYWLQQEPDGTFKRLIYATSSLDSGVPKRFSGSRSGSDYSLTISSLESEDFVDYYCLQYASSPYTFGGGTKLAIKR
notes: Murine IgG1
